Common to all, as to assay: ELISA
A general note: An ELISA detects its analyte on a solid surface through an enzyme-linked reagent.

Experiment [1] addresses all seasonal H3s (1968–2020) assayed (soluble HA ectodomains, ELISA) (influenza A virus).
Experiment [2] deals with pre-pandemic H5 HAs (soluble HA ectodomains, ELISA) (influenza A virus).
The target in experiment [3] is pandemic H2 HA (soluble HA ectodomain, ELISA) (influenza A virus).
For experiment [4], the target named is specific HAs not engaged in ELISA (soluble HA ectodomains) (influenza virus).

Values joined by “and” are separate entries in the source; they are usually repeats but may differ in a detail not shown here. Equal entries are not always repeated.

B1: S1V2-65 recombinant human IgG1 (antibody, V domains shown)
VH: EVQLVQSGAEVKKPGETLKISCKGSGYSFTNYWIGWVRQMPGKGLECMGIIDPSDSETRYSPSFQGQVTISADKSTNTAFLQWSTVKASDTAIYYCARLGYGDSPPFDFWGQGAGVTVS
VL: MTQSPLSLPVTPGESASISCRSSQSLLYSNGYNHLDWYVQKPGQPPQLLIFLGSTRASGVSDRVSGSGSGTDFTLQISRVEAEDVGVYYCMQALETPYTFGQGTKLEVK
As a reminder, the Kd is the concentration at which binding is half-saturated. Lower therefore signals tighter binding. For the molecule B1, the Kd is 0.16 nM and 0.21 nM and 0.25 nM in experiment [1]; 0.1 nM in experiment [2]; 10 nM in experiment [3]; over 100 nM in experiment [4].

B2: S1V2-60 recombinant human IgG1 (antibody, V domains shown)
VH: EVQLVQSGAEVSEPGKSLKISCKGSAYSFINYWIGWVRQMPGKGLECMGIIDPSDSETRYNPSFEGHVLISADTSINTAYLQWSSLRASDTAMYYCVRLGYGDSPPFDSWGQGTLVTVS
VL: MTQSPFSLPVTPGEPASISCRSSQSLLYSNGYNHLDWYQQKPGQPPQLLIFLGSRRASGVPDRFSGSGSGTDFTLKISRVEAEDVGVYYCMQALQDPYTFGQGTKLEIK
Regarding B2, the figures for the Kd in experiment [2], in experiment [3] and in experiment [4] were 0.1 nM, 8.8 nM and over 100 nM, respectively.

B3: FI6v3 recombinant human IgG (antibody, V domains shown)
VH: QVQLVESGGGVVQPGRSLRLSCAASGFTFSTYAMHWVRQAPGKGLEWVAVISYDANYKYYADSVKGRFTISRDNSKNTLYLQMNSLRAEDTAVYYCAKDSQLRSLLYFEWLSQGYFDYWGQGTLVTVSS
VL: not shown
As for B3, the figures for the Kd in experiment [2] and in experiment [3] were 0.44 nM and 0.36 nM, respectively.

B4: S1V2-17 recombinant human IgG1 (antibody, V domains shown)
VH: QVKLVQSGAEVKKPGASVKVSCKVSGYTLSELSIHWVRQVPGKGLESMGGFDPEDDGAIYAESFQGRVTMTEDTSTDTSFMELHSLRSEDTAVYYCVTWLVGTTVAAYWGQGTLVTVS
VL: MTQTPFSLPVTPGEPASISCRSSQSLLYSNGYNHLDWYLQKPGQSPQLLIYLGSYRASGVPDRFSGSGSGTDFTLKISRVEADDVGVYYCMQALQAPRTFGQGTKVEIK
In the case of B4, the Kd in experiment [2] is 0.14 nM; in experiment [3], 6.5 nM; in experiment [4], over 100 nM.

B5: S8V1-157 recombinant human IgG1 (antibody, V domains shown)
VH: EVQLVQSGAEVKKPGASVKVSCKVSGYRLTALSMHWVRQAPGKGLEWMGGFDPEEDETIYAQNFQGRVTLTEDTSTDTVYMELSSLRSEDTGVYYCATLMGANPFDYWGQGTLIIVSG
VL: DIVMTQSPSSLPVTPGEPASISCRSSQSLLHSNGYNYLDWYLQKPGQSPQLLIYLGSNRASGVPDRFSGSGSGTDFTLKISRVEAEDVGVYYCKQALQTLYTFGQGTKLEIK
With B5, the Kd was under 0.1 nM in experiment [2], 2.5 nM in experiment [3] and over 100 nM in experiment [4].

Values taken from PMC12153317 (2025).
